In paper PMC11189300 one finds kinetochore levels of endogenous Ndc80C (NDC80^HEC1 immunofluorescence) in HeLa cells depleted of endogenous Mis12C and electroporated with the mutant Mis12C data, which are given here for one molecule.

For experiment [1], the target named is Mis12C^M3 (human), Q9H081.
Experiment [2] concerns the target Mis12C^M4 (human), Q9H081.

Mis12C^M3 (human), Q9H081, sequence (Q9H081 whole entry, chain 1 of 4): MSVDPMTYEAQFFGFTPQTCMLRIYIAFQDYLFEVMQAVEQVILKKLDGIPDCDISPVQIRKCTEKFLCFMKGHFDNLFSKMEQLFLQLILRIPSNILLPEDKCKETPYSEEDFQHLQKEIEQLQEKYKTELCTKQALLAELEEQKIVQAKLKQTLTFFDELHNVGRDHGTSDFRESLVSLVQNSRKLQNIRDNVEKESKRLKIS
Mis12C^M3 (human), Q9H081, sequence (Q6P1K2 whole entry, chain 2 of 4, further chain): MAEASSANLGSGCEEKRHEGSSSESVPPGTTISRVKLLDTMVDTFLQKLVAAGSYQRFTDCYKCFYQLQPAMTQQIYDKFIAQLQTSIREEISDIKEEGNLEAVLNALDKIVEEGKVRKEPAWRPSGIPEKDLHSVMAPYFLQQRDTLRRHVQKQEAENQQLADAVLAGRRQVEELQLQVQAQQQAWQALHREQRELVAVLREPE
Mis12C^M3 (human), Q9H081, sequence (Q96IY1 whole entry, chain 3 of 4, further chain): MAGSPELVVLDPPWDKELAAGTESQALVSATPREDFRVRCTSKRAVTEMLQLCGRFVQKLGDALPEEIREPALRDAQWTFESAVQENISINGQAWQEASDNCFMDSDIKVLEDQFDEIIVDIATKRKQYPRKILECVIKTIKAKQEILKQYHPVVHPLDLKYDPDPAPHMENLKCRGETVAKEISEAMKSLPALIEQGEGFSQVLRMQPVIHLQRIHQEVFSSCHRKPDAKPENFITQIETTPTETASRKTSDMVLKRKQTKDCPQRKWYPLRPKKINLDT
Mis12C^M3 (human), Q9H081, sequence (Q9H410 whole entry, chain 4 of 4, further chain): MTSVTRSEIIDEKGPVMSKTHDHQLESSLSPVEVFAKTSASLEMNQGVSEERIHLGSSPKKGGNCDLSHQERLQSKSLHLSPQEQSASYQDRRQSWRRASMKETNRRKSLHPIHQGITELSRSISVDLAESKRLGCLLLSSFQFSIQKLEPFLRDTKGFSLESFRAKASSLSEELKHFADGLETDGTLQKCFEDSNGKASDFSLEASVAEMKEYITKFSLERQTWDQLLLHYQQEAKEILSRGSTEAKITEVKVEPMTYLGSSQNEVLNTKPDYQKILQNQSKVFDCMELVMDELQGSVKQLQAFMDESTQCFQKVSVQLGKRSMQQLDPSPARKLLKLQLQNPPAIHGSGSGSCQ
Mis12C^M4 (human), Q9H081, sequence (Q9H081 whole entry, chain 1 of 4): as the sequence (Q9H081 whole entry, chain 1 of 4) above
Mis12C^M4 (human), Q9H081, sequence (Q6P1K2 whole entry, chain 2 of 4, further chain): as the sequence (Q6P1K2 whole entry, chain 2 of 4, further chain) above
Mis12C^M4 (human), Q9H081, sequence (Q96IY1 whole entry, chain 3 of 4, further chain): as the sequence (Q96IY1 whole entry, chain 3 of 4, further chain) above
Mis12C^M4 (human), Q9H081, sequence (Q9H410 whole entry, chain 4 of 4, further chain): as the sequence (Q9H410 whole entry, chain 4 of 4, further chain) above

B1: Ndc80 complex (Ndc80C): NDC80^HEC1, NUF2, SPC24, SPC25, O14777 1-642; Q9BZD4 1-464; Q8NBT2 1-197; Q9HBM1 1-224 (complex)
chain 1: MKRSSVSSGGAGRLSMQELRSQDVNKQGLYTPQTKEKPTFGKLSINKPTSERKVSLFGKRTSGHGSRNSQLGIFSSSEKIKDPRPLNDKAFIQQCIRQLCEFLTENGYAHNVSMKSLQAPSVKDFLKIFTFLYGFLCPSYELPDTKFEEEVPRIFKDLGYPFALSKSSMYTVGAPHTWPHIVAALVWLIDCIKIHTAMKESSPLFDDGQPWGEETEDGIMHNKLFLDYTIKCYESFMSGADSFDEMNAELQSKLKDLFNVDAFKLESLEAKNRALNEQIARLEQEREKEPNRLESLRKLKASLQGDVQKYQAYMSNLESHSAILDQKLNGLNEEIARVELECETIKQENTRLQNIIDNQKYSVADIERINHERNELQQTINKLTKDLEAEQQKLWNEELKYARGKEAIETQLAEYHKLARKLKLIPKGAENSKGYDFEIKFNPEAGANCLVKYRAQVYVPLKELLNETEEEINKALNKKMGLEDTLEQLNAMITESKRSVRTLKEEVQKLDDLYQQKIKEAEEEDEKCASELESLEKHKHLLESTVNQGLSEAMNELDAVQREYQLVVQTTTEERRKVGNNLQRLLEMVATHVGSVEKHLEEQIAKVDREYEECMSEDLSENIKEIRDKYEKKATLIKSSEE
chain 2: METLSFPRYNVAEIVIHIRNKILTGADGKNLTKNDLYPNPKPEVLHMIYMRALQIVYGIRLEHFYMMPVNSEVMYPHLMEGFLPFSNLVTHLDSFLPICRVNDFETADILCPKAKRTSRFLSGIINFIHFREACRETYMEFLWQYKSSADKMQQLNAAHQEALMKLERLDSVPVEEQEEFKQLSDGIQELQQSLNQDFHQKTIVLQEGNSQKKSNISEKTKRLNELKLSVVSLKEIQESLKTKIVDSPEKLKNYKEKMKDTVQKLKNARQEVVEKYEIYGDSVDCLPSCQLEVQLYQKKIQDLSDNREKLASILKESLNLEDQIESDESELKKLKTEENSFKRLMIVKKEKLATAQFKINKKHEDVKQYKRTVIEDCNKVQEKRGAVYERVTTINQEIQKIKLGIQQLKDAAEREKLKSQEIFLNLKTALEKYHDGIEKAAEDSYAKIDEKTAELKRKMFKMST
chain 3: MAAFRDIEEVSQGLLSLLGANRAEAQQRRLLGRHEQVVERLLETQDGAEKQLREILTMEKEVAQSLLNAKEQVHQGGVELQQLEAGLQEAGEEDTRLKASLLQLTRELEELKEIEADLERQEKEVDEDTTVTIPSAVYVAQLYHQVSKIEWDYECEPGMVKGIHHGPSVAQPIHLDSTQLSRKFISDYLWSLVDTEW
chain 4: MVEDELALFDKSINEFWNKFKSTDTSCQMAGLRDTYKDSIKAFAEKLSVKLKEEERMVEMFLEYQNQISRQNKLIQEKKDNLLKLIAEVKGKKQELEVLTANIQDLKEEYSRKKETISTANKANAERLKRLQKSADLYKDRLGLEIRKIYGEKLQFIFTNIDPKNPESPFMFSLHLNEARDYEVSDSAPHLEGLAEFQENVRKTNNFSAFLANVRKAFTATVYN
Consider B1, for which the kinetochore levels of endogenous Ndc80C (NDC80^HEC1 immunofluorescence) in HeLa cells depleted of endogenous Mis12C and electroporated with the mutant Mis12C in experiment [1] and in experiment [2] was 50 % reduction each time.
